Test results taken from IntAct's records for PubMed 23977161.

B1: Prelamin-A/C (Homo sapiens), P02545 (parent)
chain: METPSQRRATRSGAQASSTPLSPTRITRLQEKEDLQELNDRLAVYIDRVRSLETENAGLRLRITESEEVVSREVSGIKAAYEAELGDARKTLDSVAKERARLQLELSKVREEFKELKARNTKKEGDLIAAQARLKDLEALLNSKEAALSTALSEKRTLEGELHDLRGQVAKLEAALGEAKKQLQDEMLRRVDAENRLQTMKEELDFQKNIYSEELRETKRRHETRLVEIDNGKQREFESRLADALQELRAQHEDQVEQYKKELEKTYSAKLDNARQSAERNSNLVGAAHEELQQSRIRIDSLSAQLSQLQKQLAAKEAKLRDLEDSLARERDTSRRLLAEKEREMAEMRARMQQQLDEYQELLDIKLALDMEIHAYRKLLEGEEERLRLSPSPTSQRSRGRASSHSSQTQGGGSVTKKRKLESTESRSSFSQHARTSGRVAVEEVDEEGKFVRLRNKSNEDQSMGNWQIKRQNGDDPLLTYRFPPKFTLKAGQVVTIWAAGAGATHSPPTDLVWKAQNTWGCGNSLRTALINSTGEEVAMRKLVRSVTVVEDDEDEDGDDLLHHHHGSHCSSSGDPAEYNLRSRTVLCGTCGQPADKASASGSGAQVGGPISSGSSASSVTVTRSYRSVGGSGGGSFGDNLVTRSYLLGNSSPRTQSPQNCSIM

Tests used:
SYNE2, Q8WXH0-1 [1] = variants of: B1; conditions: with SYNE2, Q8WXH0-1
SYNE2, Q8WXH0-1 [2] = variants of: B1; conditions: with SYNE2, Q8WXH0-1; remark: listed apart in the source

effect of a mutation on the interaction (SYNE2, Q8WXH0-1 [1])	effect of a mutation on the interaction (SYNE2, Q8WXH0-1 [2])	Variant
decreasing interaction strength	with no effect	R419C
increasing interaction strength	with no effect	G411D
decreasing interaction strength	with no effect	L421P
decreasing interaction strength	with no effect	G413C

Continued, variant first:

Variant	effect of a mutation on the interaction (SYNE2, Q8WXH0-1 [1])	effect of a mutation on the interaction (SYNE2, Q8WXH0-1 [2])
R401C	increasing interaction strength	with no effect
V415I	increasing interaction strength	with no effect
R427G	decreasing interaction strength	with no effect
